From the supplement of paper PMC12042874
± gives the uncertainty stated by the source.

Test: amyloid nucleation score (Sup35N fusion, yeast selection) (log enrichment); library NNK2; higher = more nucleation; inactive = no reads after selection
How it was run: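 After 24 hours of induction with 100 μM copper sulfate, psi-negative yeast expressing peptides of 20 random codons fused to Sup35N were grown for 7 days at 30°C on medium lacking adenine and uracil. Input and output plasmid inserts were sequenced with Illumina, and sequences with under 100 input reads were discarded. Scores for nucleation are the DiMSum log enrichment of output over input reads, centred on the mode score of non-aggregating sequences.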

| Substance | amyloid nucleation score |
| --- | --- |
| ALLDHFPDEGHFKATFISSI | 0.85 ± 0.58 |
| ALLVILLDCLQFIYMTELNC | -0.032 ± 1.1 |
| ALLWCQMWERDRSEFPIGGF | 1.2 ± 0.45 |
| ALMTVASRKTLIPVGAKQMN | inactive |
| ALPKFSNNYLYEFLWFSRYL | -0.538 ± 0.76 |
| ALRDFS | 0.465 ± 0.8 |
| ALRLLSFKVMVVEDYLTMTL | 2.91 ± 0.098 |
| ALRTPCYSAMHLGAWVFVCF | 3.31 ± 0.14 |
| ALVLRATVVVGIVKPGHAAD | 0.523 ± 0.32 |
| ALVVLFTCGCSGMLVYNAWS | 0.841 ± 0.13 |
| AMLLANALIWNRICGDRRLA | 0.823 ± 0.4 |
| ANFGALHRAHESVECSLY | inactive |
| ANVWRSLFAFTIANVTIPR | 5.714 ± 0.045 |
| APRGASALGCVYSDCSVVSI | 0.058 ± 1 |
| APSGRHFFTFTPC | 0.605 ± 0.36 |
| AQAFLNGVGRLLVCTRTCRN | 0.895 ± 0.81 |
| AQDWVARIRWSVRQFYGARC | 2.18 ± 0.14 |
| AQVKKLDRARCRFQRVV | -1.4 ± 0.78 |
| ARLSWWGS | -0.184 ± 0.29 |
| ARNTTGGSYV | 0.504 ± 0.74 |
| ARPIKFYKKLYFSCMIELLR | -1.38 ± 0.54 |
| ARSRFSYKMRYPACGVISSR | -0.472 ± 0.79 |
| ARYMSQVRRTSSHTLNEKI | 0.545 ± 0.51 |
| ASCNKGPEKSGQLFLLSAFL | -0.641 ± 0.49 |
| ASFFDTVNCSWFSGIFVMGF | 1.59 ± 0.21 |

| Substance | amyloid nucleation score |
| --- | --- |
| ASGEDVNPSVCFHTTAMLYQ | 0.98 ± 0.66 |
| ASGNRTFVVMLLNRRKMMST | 0.008 ± 0.48 |
| ASLFFM | 0.707 ± 0.34 |
| ASLIRGATKGQTVCEMALSG | -0.07 ± 0.27 |
| ASMVSVSVDEFGGFLPSCVS | -0.55 ± 0.46 |
| ASQRTVA | 1.6 ± 0.36 |
| ASRPWMMYPHESARRSR | 1.6 ± 0.22 |
| ASSRFDDVINDRIRILVCAV | -0.102 ± 0.49 |
| ASSTNVYLIIIGLWSAAM | 2.46 ± 0.18 |
| ASSWGVNGRVNKISRTG | 1.32 ± 0.18 |
| ASTLPYYECEYR | 0.343 ± 0.18 |
| ASVAGSV | 0.781 ± 0.27 |
| ASWYRMWMWCEHTSSRLCVK | 5.268 ± 0.037 |
| ATHKVWFESGYAHTPLVYLF | -0.588 ± 0.78 |
| ATKRGVHSQLCDCLRCMEFS | 0.386 ± 0.32 |
| ATSMVSSTRVHVHFDHVRVE | 6.54 ± 0.066 |
| ATVIEYKYVRGMYLLMTYTY | -0.536 ± 1 |
| AVASVETDGSKIYMMDVLNY | -1.16 ± 1.1 |
| AVFSRYCLIYVIMLDHDTDP | 5.03 ± 0.099 |
| AVISGCFMRGLTTRIRTTLM | -0.073 ± 0.74 |
| AVLFRRVAFRHNWPW | 0.995 ± 0.68 |
| AVNSNDTRDGRCGVIAI | 0.057 ± 0.31 |
| AVQVLYRGTFLLPFWRVANV | -0.487 ± 1.1 |
| AVVTPKMIMMGWTEGGINVR | -0.864 ± 0.76 |
| AWEAPPYMCRDILRSWRGRL | 0.757 ± 0.51 |

| Substance | amyloid nucleation score |
| --- | --- |
| AWRKRH | 0.746 ± 0.18 |
| AWRVRTLQGFYGSDAWQSHD | -0.237 ± 0.79 |
| AWYWN | -0.49 ± 0.33 |
| AYASPCMQDLGRCLGRPRML | 1.21 ± 0.31 |
| AYGVSPI | -0.093 ± 0.35 |
| AYLPHAHTT | -0.154 ± 0.33 |
| AYLQGSLMEKICKISCPVDN | -0.387 ± 1.1 |
| AYMKYHAIRLNARFCGS | 3.53 ± 0.075 |
| AYMYTMGYRSHHVTEVVVIW | -0.047 ± 0.49 |
| AYRVWRRGVEMMRNPFLPVA | 3.6 ± 0.064 |
| AYYYVLRFRCLFTFYPQLTA | -0.428 ± 0.39 |
| CAFVGKVSTARLVSSRNSFN | 5.801 ± 0.045 |
| CAKCVMCSNCPKNSGRILYR | -1.12 ± 1.1 |
| CATSISMLEHQ | 0.556 ± 0.2 |
| CCCGRMTSVHVDKPDLYLPL | -0.047 ± 1.1 |
| CCDRSAPAT | -0.12 ± 0.54 |
| CCFCFDNLIIPRDCYANSDN | 6.734 ± 0.03 |
| CCLYYHMIKAWDTTGVRLVN | -1.4 ± 0.78 |
| CCNMTHYDFSGYNDGAMQDC | -0.424 ± 0.76 |
| CCWLAMRVRFTMASKLPNFE | 3.34 ± 0.083 |
| CCWRSNSRNTNVIPNLSLFR | 3.94 ± 0.04 |
| CDILPDLPGRFALVRKASHN | 1.11 ± 0.45 |
| CDMPLKLWTLAVLPLDVPYR | 0.179 ± 0.49 |
| CDPFYTSLGCSSN | 2.85 ± 0.2 |
| CDPWQGYRWLP | -0.665 ± 0.37 |

| Substance | amyloid nucleation score |
| --- | --- |
| CDRLSVNHFKEAGVQGSLSE | 0.851 ± 0.21 |
| CDVRSPSF | -1.02 ± 0.3 |
| CDYYLFLCIYRSQNVGTEGG | 6.783 ± 0.063 |
| CECLRDESER | 2.1 ± 0.29 |
| CEEHDFMTSFICIAWAWKWL | -0.66 ± 0.48 |
| CEISFVFIWILIVFNNVDPD | inactive |
| CELEGWSVGSRVNLLILIR | -0.213 ± 1.1 |
| CESPLSYWWRSRSLFSLCVE | -0.359 ± 0.55 |
| CEYYVHLRY | -0.702 ± 0.49 |
| CFAIFWLFECTTSSMKMTRV | 0.053 ± 1.1 |
| CFAYSSWDTPDMMAWVCRWD | 0.154 ± 0.65 |
| CFFSNQMADGYPQRWAVLRD | 4.94 ± 0.054 |
| CFGYWHSVRARCLRKVGHRT | 0.546 ± 0.38 |
| CFIFKCKKCHLYPMDSVICQ | inactive |
| CFIFKWFYYCLSVSTIDMSV | -2.48 ± 1.1 |
| CFIPLGVNFGDRTWLTVRIR | 0.357 ± 0.41 |
| CFMAVQI | inactive |
| CFQYTQTNVMRFSYGIGHRE | 2.12 ± 0.18 |
| CFSCLISWADMNSLLCYLEL | -1.66 ± 0.48 |
| CGCHCVYSPYYCFLTYWCAN | -0.542 ± 0.76 |
| CGFFVNEFTDLAWSYSLAVN | -0.117 ± 0.74 |
| CGKCSVCG | 0.502 ± 0.27 |
| CGLKDTTKLAVDVTPQNM | 0.908 ± 0.3 |
| CGMFWLSRYEFYRISSCRRL | 1.3 ± 0.14 |
| CGQRCPKC | 3.81 ± 0.063 |

| Substance | amyloid nucleation score |
| --- | --- |
| CHNYELCCRLFNSFSTNQIA | -0.468 ± 0.29 |
| CHQCVNERFESKREPVPDHS | 0.421 ± 0.45 |
| CHWSTGRYRDVMICVLWGIS | -0.049 ± 0.34 |
| CHYRMVVKRYTFEHYAFYVG | -0.782 ± 0.61 |
| CIFCYANVFAYFTTKGLFVQ | -0.885 ± 0.38 |
| CIFILTD | -1.67 ± 0.45 |
| CIGIWDAIEVVENREL | -0.545 ± 0.64 |
| CIKVCALGCVDGVLVWERRW | 0.538 ± 0.27 |
| CILGENYRIQSTDAHKGVSR | -0.205 ± 0.19 |
| CILLPKVSCCCKGLICCDFV | 0.186 ± 0.34 |
| CIRAECVKLYL | 6.11 ± 0.087 |
| CISVVFVRHNGNFVSFNELV | 6.412 ± 0.05 |
| CISWL | inactive |
| CIYKS | -1.36 ± 0.75 |
| CKKEVL | inactive |
| CKSLLVKC | inactive |
| CKSSGGWNVEMWSVK | -0.399 ± 0.41 |
| CKYFLLVFIVVNYFGLGPMP | inactive |
| CLAFLGLLKSFMITKGW | -1.49 ± 0.78 |
| CLCCKLVYASNIEIGDYMGF | 6.216 ± 0.034 |
| CLEHHNIWVILLVER | -0.207 ± 0.63 |
| CLFRLSSCVPTWLMQLTMWG | 0.244 ± 0.25 |
| CLFYRCCMHDPRSLLEKGRP | 5.835 ± 0.037 |
| CLGGTLYLRCFIVDLLWSTG | -0.219 ± 0.55 |
| CLLNVTEAFTGGSMIGWHFR | 5.393 ± 0.049 |

| Substance | amyloid nucleation score |
| --- | --- |
| CLLYDQGFWQAGVLNVVAAR | -0.085 ± 0.29 |
| CLNRLFHTPGDGDNYCRAIL | 0.34 ± 0.5 |
| CLSASTALREGFWNPWRCGS | 0.164 ± 0.8 |
| CLSCGLRTEDLYWDTRICSD | 1.18 ± 0.29 |
| CLVAQNVTVMVSGV | 5.94 ± 0.065 |
| CLVDGLANVHVYRENLGF | -0.841 ± 0.29 |
| CLWHWSNGRNVGKIYLFAVT | -0.377 ± 0.24 |
| CLYMRFAFHLPELRALTKSP | 0.094 ± 0.77 |
| CMDQNVEPCSLVWQTYFPCY | -0.419 ± 0.6 |
| CMESRCFEL | 0.438 ± 0.56 |
| CMFEFHGVAVGLMRVFHRLW | 5.23 ± 0.062 |
| CMFPSVCQPLTGMTVYGNST | -0.084 ± 0.48 |
| CMGGQQPALGISSFTVVWLY | inactive |
| CMKMSWFRTRSTYSIEALHS | 0.037 ± 0.41 |
| CMPPRLWMW | -0.137 ± 1.1 |
| CMRCILASCK | -0.348 ± 0.34 |
| CMRVRCFSILNSAFCKCEMA | -1.62 ± 1.1 |
| CMSIHCVTTSRVLKFNSKWY | 3.11 ± 0.15 |
| CNCQYHSVWIT | 0.392 ± 0.26 |
| CNIVPYRPINGWIPDVLLED | -0.275 ± 0.79 |
| CNNQEMPTSGWMSCFSCALC | 1.48 ± 0.32 |
| CNRYWGRPHGYFFSSSMCMV | -1.28 ± 0.75 |
| CNSQVVWFFRI | 4.69 ± 0.062 |
| CNSRNMVTGISM | 0.034 ± 1.1 |
| CNVAHRLRVRSVAK | 0.789 ± 0.47 |

| Substance | amyloid nucleation score |
| --- | --- |
| CNVDYLSDVYYHVPMQDQSL | 0.368 ± 0.48 |
| CNWLYF | 0.395 ± 0.8 |
| CNYMPVPRPSMVMSFVSVTV | inactive |
| CPEDVAEFMCRALFRSISIG | 0.45 ± 0.74 |
| CPVAQYQG | -0.308 ± 0.21 |
| CRAHMCLQFNYWTRVMNTPT | 6.809 ± 0.068 |
| CRFALSMYNWVLYNRNFQLI | -0.363 ± 1.1 |
| CRFLRA | -0.051 ± 0.79 |
| CRHMSDHWKSSR | -0.562 ± 0.54 |
| CRISQTFF | 1.82 ± 0.15 |
| CRKYKLRHRADDCSMYCTRL | 3.33 ± 0.14 |
| CRLGLLF | 0.767 ± 0.66 |
| CRMNDNSDWVRYAGHKAMAS | 1.2 ± 0.27 |
| CRSHVAGFDAHTNILLKPIC | -0.346 ± 0.64 |
| CRWTASAIHARGRVSDRMRD | 0.05 ± 0.29 |
| CRYYSNPAPSPRLVN | inactive |
| CSFDVYNSDCTTHDDIINNF | -1.43 ± 1 |
| CSFSADCVSRSGGRSFSP | -0.834 ± 0.63 |
| CSFVLVFVIIQ | 3.49 ± 0.12 |
| CSIGLRCGNVMLPTEWVSNC | -0.763 ± 0.32 |
